Target: CD24 (human) (UniProt P25063)
Assay: cell-based or functional assay

Chain of CD24 (human) (P25063 27-59): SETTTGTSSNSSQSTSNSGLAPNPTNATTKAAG

Substance: negative control antibody (mouse IgG)
- Phagocytosis rate % (A549 tumor cells by human PBMC-derived M2 macrophages, antibody 5 µg/ml): 2.7%
- Phagocytosis rate (%) (MCF-7 tumor cells by human PBMC-derived M2 macrophages, antibody 5 µg/ml): 1.3%

Source: US20250263500A1
